Target: TMIEdel80–100-HA (UniProt Q8K467)
Experiment: co-IP

percent reduction of co-IP against TMIE-HA: 80%
B1: MYC-TMC1 (natural protein)
chain: MLQIQVEEKEEDTEESSSEEEEDKLPRRESLRPKRKRTRDVINEDDPEPEPEDEETRKAREKERRRRLRRGAEEEEEIDEEELERLKALLDENRQMIATVKCKPWKMEKKIEVLKEAKKFVSENEGALGKGKGKKWFAFKMMMAKKWAKFLRDFENFKAACVPWENKIKAIESQFGSSVASYFLFLRWMYGVNMVLFVLTFSLIMLPEYLWGLPYGSLPRKTVPRAEEASAANFGVLYDFNGLAQYSVLFYGYYDNKRTIGWLNFRLPLSYFLVGIMCIGYSFLVVLKAMTKNIGDDGGGDDNTFNFSWKVFCSWDYLIGNPETADNKFNSITMNFKEAIIEERAAQVEENIHLIRFLRFLANFFVFLTLGASGYLIFWAVKRSQEFAQQDPDTLGWWEKNEMNMVMSLLGMFCPTLFDLFAELEDYHPLIALKWLLGRIFALLLGNLYVFILALMDEINNKIEEEKLVKANITLWEANMIKAYNESLSGLSGNTTGAPFFVHPADVPRGPCWETMVGQEFVRLTVSDVLTTYVTILIGDFLRACFVRFCNYCWCWDLEYGYPSYTEFDISGNVLALIFNQGMIWMGSFFAPSLPGINILRLHTSMYFQCWAVMCCNVPEARVFKASRSNNFYLGMLLLILFLSTMPVLYMIVSLPPSFDCGPFSGKNRMFEVIGETLEHDFPSWMAKILRQLSNPGLVIAVILVMVLTIYYLNATAKGQKAANLDLKKKMKQQALENKMRNKKMAAARAAAAAGGQ
